{
  "source": "patent US10548950B2",
  "about": "“Irisin-related cancer treatments” (STC.UNM, priority 2014, dated 2020)",
  "molecules": {"B1": {"name": "IM: human recombinant modified and active (glycosylated) irisin from PlexBio (protein, UniProt Q8NAU1 1-191, looked up)", "Irisin": "MQAARGGAGRPERPGRPGRGPERERERPPGAGAASPCAAPGLPAGGATIHPGSPSAWPPRARAALRLWLGCVCFALVQADSPSAPVNVTVRHLKANSAVVSWDVLEDEVVIGFAISQQKKDVRMLRFIQEVNTTTRSCALWDLEEDTEYIVHVQAISIQGQSPASEPVLFKTPREAEKMASKNKDEVTMKE", "modifications": "Irisin glycosylated"}, "B2": {"name": "irisin: 112 aa peptide cleaved from FNDC5; term covers both non-modified (INM) and glycosylated (IM) irisin (protein)", "chain": "DSPSAPVNVTVRHLKANSAVVSWDVLEDEVVIGFAISQQKKDVRMLRFIQEVNTTTRSCALWDLEEDTEGIVHVQAISIQGQSPASEPVLFKTPREAEKMASKNKDEVTMKE", "modifications": "non-modified irisin", "notes": "112 aa peptide cleaved from FNDC5; term covers both non-modified (INM) and glycosylated (IM) irisin"}},
  "key": {"MDA-MB-231 cells [1]": {"system": "MDA-MB-231 cells", "test": "Doxorubicin sensitivity: cell viability (WST-1) with Dox with or without irisin", "format": "cell-based, Human", "settings": "24 hours", "protocol": "Cells were seeded overnight at a density of 5,000 cells/well, treated with or without varying concentrations of IM or INM (from 0.625 nM to 20 nM) (N=12). Cells were then incubated for 1 hour in medium containing 10% WST-1 cell proliferation reagent from Roche (Indianapolis, Ind.) and fluorescence was measured using a Wallac Victor3V 1420 Multilabel Counter from PerkinElmer (Waltham, Mass.). These methods were repeated with varying concentrations (from 0.156 μM to 10 μM) of the antineoplastic Doxorubicin (Dox) from Sigma (St. Louis, Mo.) dissolved in DMSO (using 0.1% for all treatments including control) with 2 nM IM or INM for 24 hours (N=8). At 24 hours, Dox uptake was measured using phase-contrast and fluorescence (N=24). Treatment concentrations and duration were determined empirically through pilot experiments and from previously published observations for Dox.^20"}, "[2]": {"system": "caspase-3/7 activity in MDA-MB-231 cells", "test": "Caspase-3/7 activity (kinetic apoptosis reagent, Incucyte ZOOM)", "format": "cell-based, Human", "settings": "MDA-MB-231, various concentrations, 24 hours", "source_text": "Cells were co-treated as previously described (N=12) with a kinetic caspase-3/7 apoptosis reagent from Essen Bioscience (Ann Arbor, Mich.). Caspase-3/7 activity was indicated by mean green fluorescence measured by the Incucyte ZOOM as described above."}, "[3]": {"system": "NFκB activity in MDA-MB-231 cells", "test": "NFκB-GFP reporter system", "format": "cell-based, Human", "settings": "MDA-MB-231, 24 hours", "protocol": "Cells were transfected with a NFκB GFP-linked reporter system from Qiagen (Valencia, Calif.) before treatment with IM, INM, or TNF-α from R and D Systems (Minneapolis, Minn.) at various concentrations for 24 hours (N=12). NFκB activity was indicated by mean fluorescence measured by the Incucyte ZOOM as described above."}, "MDA-MB-231 cells [4]": {"system": "MDA-MB-231 cells", "test": "Cell viability (WST-1) after irisin treatment for 24 hours", "format": "cell-based, Human", "settings": "0.625 nM to 20 nM, compared with control", "protocol": "(§1) Human non-malignant breast epithelial cells (MCF-10a), malignant breast epithelial cells (MCF-7), and malignant aggressive breast epithelial cells (MDA-MB-231) were purchased from American Type Culture Collection (Manassas, Va.). Cells were maintained under standard conditions (37° C. in a 5% CO2) using growth media as described in Supporting Information Table 1. Cells were treated with either human recombinant non-modified irisin (INM) from Cayman Chemical (Ann Arbor, Mich.) or human recombinant modified and active (glycosylated) irisin (IM) from PlexBio (San Francisco, Calif.) at concentrations ranging from 0.625 nM to 20 nM dissolved in culture media for 24 hours. Concentrations of irisin were determined empirically through pilot experiments based on and previously published observations.^9 MDA-MB-231 cells were labeled with red fluorescent protein (RFP) by lentiviral-transfection using CytoLight Red vector from Essen Bioscience (Ann. Arbor, Mich.). […]\n(§2) Cells were seeded overnight at a density of 5,000 cells/well, treated with or without varying concentrations of IM or INM (from 0.625 nM to 20 nM) (N=12). Cells were then incubated for 1 hour in medium containing 10% WST-1 cell proliferation reagent from Roche (Indianapolis, Ind.) and fluorescence was measured using a Wallac Victor3V 1420 Multilabel Counter from PerkinElmer (Waltham, Mass.). […]"}, "MCF-10a cells": {"system": "MCF-10a cells", "test": "Cell viability (WST-1) after irisin treatment for 24 hours", "format": "cell-based, Human", "settings": "0.625 nM to 20 nM, 24 hours post treatment", "protocol": "as §1, §2"}, "RFP MDA-MB-231 cells": {"system": "RFP MDA-MB-231 cells", "test": "Cell proliferation by automated red object counting (Incucyte ZOOM)", "format": "cell-based, Human", "settings": "2 nM, 24 hours, compared with control", "protocol": "as §1\nRFP MDA-MB-231 cells were seeded overnight in 96-well plates at a density of 5,000 cells/well and treated with or without irisin at 2 nM (IM or INM) (N=64). Cell proliferation was measured by automated red object counting optimized for MDA-MB-231 cells using the Incucyte ZOOM live content imaging from Essen Bioscience (Ann Arbor, Mich.), measured every hour for 24 hours. […]"}, "[5]": {"system": "obesity-related cancer cells", "settings": "Moon et al., MTT endpoint assay; cited from earlier work"}, "[6]": {"system": "malignant and non-malignant breast epithelial cell", "test": "Cell metabolism (data not shown)", "format": "cell-based, Human", "settings": "malignant and non-malignant cells"}},
  "data": [
    {"molecule": "COc1cccc2c1C(=O)c1c(O)c3c(c(O)c1C2=O)C[C@@](O)(C(=O)CO)C[C@@H]3O[C@H]1C[C@H](N)[C@H](O)[C@H](C)O1", "note": "[Dox, Doxorubicin, reference compound]", "values": [
      {"measurement": "Cell viability, Dox treatment alone", "setting": "MDA-MB-231 cells [1]; MDA-MB-231, Dox 100 nM or 1.0 μM", "result": "not"},
      {"measurement": "Cell viability, Dox treatment alone", "setting": "MDA-MB-231 cells [1]; MDA-MB-231, Dox 10 μM", "result": "reduced cell viability"}
    ]},
    {"molecule": "TNF-α [reference compound]", "values": [
      {"measurement": "Caspase-3/7 activity", "setting": "[2]", "result": "significantly elevated"}
    ]},
    {"molecule": "B1", "values": [
      {"measurement": "NFκB activity", "setting": "[3]", "result": "did not alter NFκB activity"},
      {"measurement": "Caspase-3/7 activity", "setting": "[2]", "result": "failed to activate caspase-3/7 activity"},
      {"measurement": "Enhancement of Dox killing by irisin", "setting": "MDA-MB-231 cells [1]; MDA-MB-231, 2 nM irisin with Dox 100 nM to 10 μM", "result": "significantly enhanced Dox killing at 1.0 μM"},
      {"measurement": "Cell viability of MDA-MB-231 cells", "setting": "MDA-MB-231 cells [4]", "result": "unaffected"},
      {"measurement": "Cell viability of MCF-10a cells", "setting": "MCF-10a cells", "result": "decreased at the highest tested dose"},
      {"measurement": "Cell proliferation of MDA-MB-231 cells", "setting": "RFP MDA-MB-231 cells", "result": "did not alter cell proliferation"}
    ]},
    {"molecule": "B2", "values": [
      {"measurement": "Cell proliferation in obesity-related cancer cells", "setting": "[5]", "result": "no significant affect on cell proliferation"},
      {"measurement": "Breast epithelial cell metabolism", "setting": "[6]", "result": "not significantly altered"}
    ]}
  ]
}
